From paper PMC6739322, “The molecular basis of chaperone-mediated interleukin 23 assembly control” (Nature Communications, 2019) come the findings set out here.

The target of this assay is T1, IL-12β (purified alone) (human, UniProt P29460 23-328).
T1 construct: interleukin-12 subunit beta (IL-12β), human; The C-terminal His-tag has a TEV cleavage site and is separated by a GS linker, so residues may be left after cleavage; also called unlabeled IL-12β; source: ExpiCHO, transiently transfected, purified from supernatant (HisTrap, TEV, SEC); not shown: His-tag, C-terminal, cleaved
T1 sequence (looked up): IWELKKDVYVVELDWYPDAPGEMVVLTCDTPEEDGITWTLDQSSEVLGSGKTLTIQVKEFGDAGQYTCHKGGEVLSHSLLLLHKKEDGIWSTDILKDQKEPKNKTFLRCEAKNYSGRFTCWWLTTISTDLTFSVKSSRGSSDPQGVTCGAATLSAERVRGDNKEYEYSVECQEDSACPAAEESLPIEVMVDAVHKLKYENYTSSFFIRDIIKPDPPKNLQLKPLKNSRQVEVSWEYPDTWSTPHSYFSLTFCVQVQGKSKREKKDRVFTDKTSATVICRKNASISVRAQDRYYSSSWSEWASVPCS
As to the kind of experiment: NMR titration; 1H,15N HSQC of 15N-labelled IL-23α^VVS (100 μM) without and with a two-fold molar excess of unlabeled IL-12β; 10 mM KPi pH 7.5, 298 K. The following applies: both partners purified.

B1: IL-23α^C14,22V,C54S (purified) (natural protein, human)
chain: RAVPGGSSPAWTQVQQLSQKLVTLAWSAHPLVGHMDLREEGDEETTNDVPHIQSGDGCDPQGLRDNSQFCLQRIHQGLIFYEKLLGSDIFTGEPSLLPDSPVGQLHASLLGLSQLLQPEGHHWETQQIPSLSPSQPWQRLLLRFKILRSLQAFVAVAARVFAHGAATLSP
notes: interleukin-23 subunit alpha (IL-23α), human; The His-tag has a TEV site and is separated by a 2x GS linker, so residues may be left after cleavage; The protein was 15N-labelled for NMR; The internal disulfide C58-C70 is formed; also called IL-23α^VVS; not shown: His-tag, N-terminal, cleaved
On to B1, for which the binding result is “binds”.
